Patent publication US20190315873A1 (AGOMAB THERAPEUTICS, published 2019)

B1: 71D6 llama-mouse chimeric mAb (mouse IgG1/lambda) (antibody)
heavy: ELQLVESGGGLVQPGGSLRLSCAASGFTFSSYGMSWVRQAPGKGLEWVSAINSYGGSTSYADSVKGRFTISRDNAKNTLYLQMNSLKPEDTAVYYCAKEVRADLSRYNDYESYDYWGQGTQVTVSSAKTTPPSVYPLAPGSAAQTNSMVTLGCLVKGYFPEPVTVTWNSGSLSSGVHTFPAVLQSDLYTLSSSVTVPSSPRPSETVTCNVAHPASSTKVDKKIVPRDCGCKPCICTVPEVSSVFIFPPKPKDVLTITLTPKVTCVVVDISKDDPEVQFSWFVDDVEVHTAQTQPREEQFNSTFRSVSELPIMHQDWLNGKEFKCRVNSAAFPAPIEKTISKTKGRPKAPQVYTIPPPKEQMAKDKVSLTCMITDFFPEDITVEWQWNGQPAENYKNTQPIMNTNGSYFVYSKLNVQKSNWEAGNTFTCSVLHEGLHNHHTEKSLSHSPGK
light: QPVLNQPSALSVTLGQTAKITCQGGSLGARYAHWYQQKPGQAPVLVIYDDDSRPSGIPERFSGSSSGGTATLTISGAQAEDEGDYYCQSADSSGSVFGGGTHLTVLGQPKSSPSVTLFPPSSEELETNKATLVCTITDFYPGVVTVDWKVDGTPVTQGMETTQPSKQSNNKYMASSYLTLTARAWERHSSYSCQVTHEGHTVEKSLSRADCS
notes: also called 71D6 (mouse format)
B2: 71G3 llama-mouse chimeric mAb (mouse IgG1/lambda) (antibody)
heavy: QVQLVESGGGLVQPGGSLRVSCAASGFTFSTYYMSWVRQAPGKGLEWVSDIRTDGGTYYADSVKGRFTMSRDNAKNTLYLQMNSLKPEDTALYYCARTRIFPSGYDYWGQGTQVTVSSAKTTPPSVYPLAPGSAAQTNSMVTLGCLVKGYFPEPVTVTWNSGSLSSGVHTFPAVLQSDLYTLSSSVTVPSSPRPSETVTCNVAHPASSTKVDKKIVPRDCGCKPCICTVPEVSSVFIFPPKPKDVLTITLTPKVTCVVVDISKDDPEVQFSWFVDDVEVHTAQTQPREEQFNSTFRSVSELPIMHQDWLNGKEFKCRVNSAAFPAPIEKTISKTKGRPKAPQVYTIPPPKEQMAKDKVSLTCMITDFFPEDITVEWQWNGQPAENYKNTQPIMNTNGSYFVYSKLNVQKSNWEAGNTFTCSVLHEGLHNHHTEKSLSHSPGK
light: QAVVTQEPSLSVSPGGTVTLTCGLSSGSVTTSNYPGWFQQTPGQAPRTLIYNTNSRHSGVPSRFSGSISGNKAALTIMGAQPEDEADYYCSLYPGSTTVFGGGTHLTVLGQPKSSPSVTLFPPSSEELETNKATLVCTITDFYPGVVTVDWKVDGTPVTQGMETTQPSKQSNNKYMASSYLTLTARAWERHSSYSCQVTHEGHTVEKSLSRADCS
notes: also called 71G3 (mouse format)
B3: 71G2 llama-mouse chimeric mAb (mouse IgG1/lambda) (antibody)
heavy: EVQLQESGGGLVQPGGSLRLSCAASGFTFSIYDMSWVRQAPGKGLEWVSTINSDGSSTSYVDSVKGRFTISRDNAKNTLYLQMNSLKPEDTAVYYCAKVYGSTWDVGPMGYGMDYWGKGTLVTVSSAKTTPPSVYPLAPGSAAQTNSMVTLGCLVKGYFPEPVTVTWNSGSLSSGVHTFPAVLQSDLYTLSSSVTVPSSPRPSETVTCNVAHPASSTKVDKKIVPRDCGCKPCICTVPEVSSVFIFPPKPKDVLTITLTPKVTCVVVDISKDDPEVQFSWFVDDVEVHTAQTQPREEQFNSTFRSVSELPIMHQDWLNGKEFKCRVNSAAFPAPIEKTISKTKGRPKAPQVYTIPPPKEQMAKDKVSLTCMITDFFPEDITVEWQWNGQPAENYKNTQPIMNTNGSYFVYSKLNVQKSNWEAGNTFTCSVLHEGLHNHHTEKSLSHSPGK
light: SSALTQPSALSVSLGQTARITCQGGSLGSSYAHWYQQKPGQAPVLVIYGDDSRPSGIPERFSGSSSGGTATLTISGAQAEDEDDYYCQSTDSSGNTVFGGGTRLTVLGQPKSSPSVTLFPPSSEELETNKATLVCTITDFYPGVVTVDWKVDGTPVTQGMETTQPSKQSNNKYMASSYLTLTARAWERHSSYSCQVTHEGHTVEKSLSRADCS
notes: also called 71G2 (mouse format)
B4: 76H10 llama-human chimeric mAb (human IgG1/lambda) (antibody, V domains shown)
VH: QLQLVESGGGLVQPGGSLRVSCTASGFTFNTYYMTWVRQAPGKGLEWVSDINSGGGTYYADSVKGRFTISRDNAKNTLYLQMNSLKPEDTALYYCVRVRIWPVGYDYWGQGTQVTVSS
VL: QAVVTQEPSLSVSPGGTVTLTCGLSSGSVTTSNYPGWFQQTPGQAPRTLIYNTNNRHSGVPSRFSGSISGNKAALTITGAQPEDEADYYCSLYTGSYTTVFGGGTHLTVLQ

Legend:
human MET ECD [1] = biological target: T1, human MET ECD (human, UniProt P08581 25-932); assay: ELISA: MET ECD immobilized (100 ng/well), mAb in human IgG1/lambda format in solution (0-40 nM), HRP anti-human Fc
T1 construct: range 1-932; recombinant ECD made by standard protein engineering; also called hMET; human MET extracellular domain
From the text: (§1) To this end, we investigated whether our human/mouse equivalent anti-MET antibodies cross-reacted with MET from other species, including rat (Rattus norvegicus) and cynomolgus monkey (Macaca fascicularis). […] Human and mouse MET ECD were used as controls. A restricted panel of antibodies representative of both SEMA binders (71D6, 71C3, 71D4, 71A3, 71G2) and PSI binders (76H10, 71G3) was selected. The 5D5 prior art antibody was used as control. MET ECD proteins were immobilized in solid phase (100 ng/well in a 96-well plate) and exposed to increasing concentrations (0-40 nM) of antibodies (with human constant regions) in solution. […] We conclude that the 71D6, 71C3, 71D4, 71A3, 71G2, 76H10 and 71G3 antibodies bind with similar affinity and capacity to human MET, mouse MET, rat MET and simian MET, at least as determined by ELISA.

[2] = biological target: monkey MET ECD (cynomolgus monkey); assay: as above
Sequence of monkey MET ECD (cynomolgus monkey) (A0A2K5 entry or part of it limits assumed): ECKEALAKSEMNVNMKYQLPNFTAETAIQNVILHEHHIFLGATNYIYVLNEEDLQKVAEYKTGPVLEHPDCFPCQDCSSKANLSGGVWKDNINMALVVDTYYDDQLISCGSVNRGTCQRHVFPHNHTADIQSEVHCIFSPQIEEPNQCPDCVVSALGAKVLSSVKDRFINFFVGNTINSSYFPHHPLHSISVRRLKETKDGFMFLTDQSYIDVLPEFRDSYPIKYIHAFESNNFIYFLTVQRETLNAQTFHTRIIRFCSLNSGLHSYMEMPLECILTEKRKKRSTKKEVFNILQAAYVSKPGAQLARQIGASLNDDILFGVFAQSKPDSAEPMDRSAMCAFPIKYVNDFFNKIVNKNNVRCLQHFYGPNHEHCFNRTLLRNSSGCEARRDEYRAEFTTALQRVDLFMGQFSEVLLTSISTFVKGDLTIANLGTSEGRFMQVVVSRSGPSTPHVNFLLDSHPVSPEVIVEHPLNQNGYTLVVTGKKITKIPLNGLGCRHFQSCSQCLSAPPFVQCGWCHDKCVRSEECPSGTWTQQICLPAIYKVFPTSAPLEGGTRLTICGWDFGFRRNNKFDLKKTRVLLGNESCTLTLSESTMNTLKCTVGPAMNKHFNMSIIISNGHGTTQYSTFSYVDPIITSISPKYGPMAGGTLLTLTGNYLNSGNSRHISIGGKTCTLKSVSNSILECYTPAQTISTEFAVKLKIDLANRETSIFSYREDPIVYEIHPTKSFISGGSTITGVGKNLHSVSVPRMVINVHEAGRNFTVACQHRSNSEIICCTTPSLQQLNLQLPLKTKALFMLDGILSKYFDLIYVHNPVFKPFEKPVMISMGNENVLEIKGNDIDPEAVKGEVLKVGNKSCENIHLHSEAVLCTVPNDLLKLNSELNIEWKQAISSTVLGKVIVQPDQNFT

[3] = biological target: T2, mouse MET on MLP29 mouse liver precursor cells (mouse, UniProt P16056 25-1379); assay: flow cytometry, MLP29 cells
T2 construct: whole, on cells; also called native mouse MET

[4] = biological target: T3, human MET on A549 human lung carcinoma cells (human, UniProt P08581 25-1390); assay: cell-based or functional assay
[5] = biological target: T2, mouse MET on MLP29 mouse liver …; assay: cell-based or functional assay
[6] = biological target: T3, human MET on A549 human lung carcinoma …; assay: flow cytometry, A549 cells
human MET ECD [7] = biological target: T1, human MET ECD; assay: ELISA on MET ECD
mouse MET ECD [8] = biological target: T4, mouse MET ECD (mouse, UniProt P16056 25-931); assay: ELISA, mouse-format mAb on MET ECD
T4 construct: range 1-931; recombinant ECD; also called mMET; mouse MET extracellular domain
Protocol: (§2) In order to directly determine whether—and to what extent—the prior art agonistic anti-MET antibodies cross-reacted with mouse MET, and to compare them to our human/mouse equivalent anti-MET antibodies, we performed an ELISA assay. Since all prior art antibodies were obtained or engineered with a mouse IgG/A format, we employed the mouse IgG/A version of 71G3, 71D6 and 71G2. Human or mouse MET ECD was immobilized in solid phase (100 ng/well in a 96-well plate) and exposed to increasing concentrations of antibodies (0-40 nM) in solution. […] Among the antibodies tested, only 71G3, 71D6 and 71G2 bound to both human and mouse MET, and they did so with indistinguishable affinities and capacities.

human MET ECD [9] = biological target: T1, human MET ECD; assay: ELISA, mouse-format mAb on MET ECD
Protocol: as §2

mouse MET ECD [10] = biological target: T4, mouse MET ECD; assay: ELISA on MET ECD
mouse MET ECD [11] = biological target: T4, mouse MET ECD; assay: ELISA: MET ECD immobilized (100 ng/well), mAb in human IgG1/lambda format in solution (0-40 nM), HRP anti-human Fc
From the text: as §1

monkey MET ECD = biological target: T5, monkey MET ECD (cynomolgus monkey, UniProt A0A2K5UM36 25-932); assay: as above
T5 construct: also called simian MET; cynomolgus monkey MET
T5 sequence (A0A2K5UM36 entry or part of it limits assumed): as the sequence (A0A2K5 entry or part of it limits assumed) above
From the text: as §1

[12] = biological target: human MET ECD mutant J (mutations 6, 7) (human) (UniProt P08581); assay: ELISA on mutant human MET ECD
[13] = biological target: human MET ECD mutant I (mutations 6, 7, 8) (human) (UniProt P08581); assay: ELISA on mutant human MET ECD
rat MET ECD (rat) = rat MET ECD (rat) (UniProt P97523); assay: ELISA: MET ECD immobilized (100 ng/well), mAb in human IgG1/lambda format in solution (0-40 nM), HRP anti-human Fc
Sequence of rat MET ECD (rat) (P97523 25-931 limits assumed, form in doubt): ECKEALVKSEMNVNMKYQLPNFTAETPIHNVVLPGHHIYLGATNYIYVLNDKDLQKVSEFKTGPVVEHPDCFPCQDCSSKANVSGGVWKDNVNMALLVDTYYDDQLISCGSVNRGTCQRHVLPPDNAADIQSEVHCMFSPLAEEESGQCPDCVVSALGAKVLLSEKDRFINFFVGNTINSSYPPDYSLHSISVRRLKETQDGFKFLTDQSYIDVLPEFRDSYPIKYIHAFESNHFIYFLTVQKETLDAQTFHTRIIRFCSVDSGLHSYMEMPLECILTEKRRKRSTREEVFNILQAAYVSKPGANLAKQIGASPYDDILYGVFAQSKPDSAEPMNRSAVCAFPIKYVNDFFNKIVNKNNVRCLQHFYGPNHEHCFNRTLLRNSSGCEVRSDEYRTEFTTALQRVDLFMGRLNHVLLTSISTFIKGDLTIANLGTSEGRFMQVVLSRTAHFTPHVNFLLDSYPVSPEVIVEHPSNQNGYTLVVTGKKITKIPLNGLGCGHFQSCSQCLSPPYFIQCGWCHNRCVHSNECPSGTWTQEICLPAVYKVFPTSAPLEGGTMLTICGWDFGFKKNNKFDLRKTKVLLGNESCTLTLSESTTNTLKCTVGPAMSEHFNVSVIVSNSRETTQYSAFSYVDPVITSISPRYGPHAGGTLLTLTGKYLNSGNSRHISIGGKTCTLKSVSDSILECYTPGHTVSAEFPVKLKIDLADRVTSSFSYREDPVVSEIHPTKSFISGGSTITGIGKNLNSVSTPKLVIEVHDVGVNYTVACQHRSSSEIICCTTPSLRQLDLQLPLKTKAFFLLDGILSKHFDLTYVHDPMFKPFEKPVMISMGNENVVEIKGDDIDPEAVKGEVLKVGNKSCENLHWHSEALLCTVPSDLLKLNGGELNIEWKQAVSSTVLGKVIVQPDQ

| Molecule | EC50 (read off the curve) (human MET ECD [1]) [nM] | EC50 (read off the curve) [2] [nM] | EMAX [3] [% CTR] | A549 MET act. EMAX [4] [% HGF] | MLP29 MET act. EMAX [5] [% HGF] | EMAX [6] [% CTR] | EC50 (human MET ECD [7]) [nM] | EC50 (mouse MET ECD [8]) [nM] | EMAX (mouse MET ECD [8]) [OD450] | EC50 (human MET ECD [9]) [nM] | EMAX (human MET ECD [9]) [OD450] | EC50 (mouse MET ECD [10]) [nM] | EC50 (read off the curve) (mouse MET ECD [11]) [nM] | EC50 (read off the curve) (monkey MET ECD) [nM] | % binding (EMAX) vs WT MET ECD [12] [%] | % binding (EMAX) vs WT MET ECD [13] [%] | EC50 (read off the curve) (rat MET ECD (rat)) [nM] |
| --- | --- | --- | --- | --- | --- | --- | --- | --- | --- | --- | --- | --- | --- | --- | --- | --- | --- |
| 5D5 anti-human MET antibody, human IgG1/lambda format | 0.2 | 0.3 | – | – | – | – | – | – | – | – | – | – | – | – | – | – | – |
| B1 | – | – | 119 | 98.3 | 103 | 122 | 0.038 | 0.044 | 2.94 | 0.042 | 2.69 | – | – | – | – | – | – |
| B2 | – | – | 110 | 90.8 | 91.9 | 116 | – | – | 3.06 | 0.058 | 3.11 | 0.062 | – | – | – | – | – |
| B3 | – | – | 128 | 102 | 102 | 142 | 0.113 | 0.091 | 2.96 | 0.098 | 2.86 | 0.109 | – | – | – | – | – |
| B4 | ~0.1 | – | – | – | – | – | – | – | – | – | – | – | ~0.03 | ~0.04 | 89 | 100 | 0.1 |
